The target of this assay is UDP-glucose pyrophosphorylase from Thermocrispum agreste DSM 44070 (TaGalU) (Thermocrispum agreste DSM 44070). The assay is described as follows: SEC; Superdex 200 10/300 GL 24 mL column, non-denaturing, 50 mM Hepes pH 7.0, 1 mM MgCl2; calibrated with protein standards. Background: SEC sorts molecules by how far they enter the pores of the column.

“UDP-glucose pyrophosphorylase from Thermocrispum agreste DSM 44070 (TaGalU) (enzyme)” came in with a stoichiometry N of 6.

In general, stoichiometry N refers to the number of molecules, sites or subunits per partner or assembly.

The record behind these values is publication PMC7343719, “Immobilization of the Highly Active UDP-Glucose Pyrophosphorylase From Thermocrispum agreste Provides a Highly Efficient Biocatalyst for the Production of UDP-Glucose” (Frontiers in Bioengineering and Biotechnology, 2020).
